# In paper PMC3068679:
# Tests used:
# [1] = target: T1, MBP-Rv3124-His6 (MoaR1) (Mycobacterium tuberculosis (gDNA; strain H37Rv?)) (UniProt O05797); experiment: EMSA
# T1 sequence: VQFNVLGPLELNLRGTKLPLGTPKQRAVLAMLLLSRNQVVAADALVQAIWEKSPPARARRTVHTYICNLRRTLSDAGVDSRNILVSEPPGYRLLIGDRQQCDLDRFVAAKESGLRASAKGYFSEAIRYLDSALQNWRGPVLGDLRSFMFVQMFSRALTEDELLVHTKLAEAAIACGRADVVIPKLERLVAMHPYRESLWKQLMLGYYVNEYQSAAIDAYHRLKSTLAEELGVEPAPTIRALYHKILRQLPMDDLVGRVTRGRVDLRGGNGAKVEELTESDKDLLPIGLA
# [2] = target: T1, MBP-Rv3124-His6 (MoaR1) (Mycobacterium tuberculosis (gDNA; strain H37Rv?)); experiment: competition
sequence,measurement,setting,value
ATGGAGCTACCATATCAGGCAGCGTAGGCGTACTCATTTTCCTATCATCTTTTCGATCCTCCACTTTGGACGCAGTCGGTTAGAGCGCCTCAAGAGAGTTTCGTACAAGGGTTAACTAACAATCGTTACCGAAATGCATCGGCGCATCGTGGCGCAGCGCATGAGCCTGCGTTTATGGCGCGTTGTTAGGGCGGAATCCGACCACTCATGTGCGAGCTTTCGTT (double strand) [Rv3109pro (222 bp)],binding,[1],binds
same,binding,[2],binds
